Measurements: patent US6569419B2, “Methods for promoting production of myelin by Schwann cells” (ZymoGenetics, Inc., priority 2000, dated 2003)

How the values were obtained:
[1] = tested on: primary rat Schwann cells; experiment: Induction of protein zero expression in Schwann cells (Western blot); assay type: cell-based; conditions: N2 medium + 1 μM progesterone
Description: Primary Schwann cells were prepared as described above using 1-day old CD rat neonates. Schwann cells were grown in DMEM, 10% fetal bovine serum (FBS), plus bovine pituitary extract (PEX) at 20 μg/ml and Forskolin at 2μM. The cells were weaned down to a low serum medium (“Li” medium with 1% FBS added to it). Li medium was comprised of DMEM/F12, 10 μg/ml tranferrin, 5 μg/ml insulin, 2 nM progesterone, 2 μM Forskolin, 20 μg/ml PEX, and 20 ng/ml Heregulin-beta-1 (R & D Systems).
The Schwann cells were grown to confluency in the low serum growth medium on poly-L-lysine-coated 10 cm tissue culture dishes. The cell medium was changed to N2 medium+1 μM progesterone with either Forskolin (Calbiochem) (10 μM and 25 μM) or 100 ng/ml of human Zcyto7. Control medium was Schwann cells in N2+1 μM progesterone for the whole time. Cells were harvested and placed in lysis buffer (125 mM Tris HCl, pH 7.0, 15% sucrose, 4% SDS, 10 mM EDTA, plus added Roche Complete-EDTA-free, protease inhibitor cocktail).
Protein concentrations of cell lysates were determined by Pierce BCA protein assay (Pierce Chemical Co., Rockford, Ill.). Forty micrograms of each cell lysate sample was run on a 4-12% Tris-Glycine gel (Novex) at 125 V for 1 hour 30 minutes, and transferred onto a PVDF membrane in a Hoeffer unit a 550 mAmps for 1 hour. Mouse monoclonal antibody to protein zero was used at 1:1000 dilution (1 μg/am final concentration) to probe the blot. A Vectastain biotin/streptavidin-HRP 2nd antibody system was used for amplication. The blot was developed with Pierce SuperSignal West Pico chemiluminescent substrate and scanned on a Boehringer-Mannheim Lumi-Imager.

primary Schwann cells = experiment: MBP induction in pure Schwann cell cultures (Western blot, densitometry); assay type: cell-based, rat; conditions: for Mean MBP induction (as percent of progesterone induction): mean ± SD; for MBP accumulation (in words): in the absence of progesterone pretreatment
Description: Primary Schwann cell cultures and dorsal root ganglia (DRG)-Schwann cell co-cultures were established. Rat primary Schwann cells were isolated as described by Einheber et al., J. Cell Biol. 123:1223-1236 (1994). Schwann cells were grown in 100 mm poly-L-lysine coated plates in Dulbecco's modified Eagles medium (DMEM) supplemented with 10% fetal bovine serum (FBS), pituitary extract (1 mg/ml) and 10 μM forskolin; up to 80-90% confluency.
The effect of Zcyto7 was tested in pure Schwann cell culture and in a co-culture of DRG and Schwann cells. Primary Schwann cells were grown to 80-90% confluency in 100 mm plates as described above. 12 h before treatment media was changed to 10 ml of N2 (defined medium) with or without 1 μM progesterone. The Zcyto7 solutions were added as 1.1 ml of 10×solution in N2 media, and cells were incubated for 48 hours (h). Cells were washed once with Hanks balanced salt solution (HBSS). The cell suspension was frozen on dry ice, thawed, pelleted and resuspended in 100 μl of lysis buffer, 125 mM tris (hydroxymethyl) aminomethane HCl (Tris HCl) pH7.0, 15% sucrose, 4% sodium dodecyl sulfate (SDS), 10 mM ethylenediaminetetraacetic acid (EDTA). Lysates were boiled for 5 minutes (min) on a water bath and cooled on ice. The protein concentration was determined using 4 μl in a BioRad BCA assay. Each sample was then supplemented with dithiothreitol (DTT) to a final concentration of 10 mM phenylmethylsulfonyl fluoride (PMSF)—to 2 mM, pepstatin and leupeptin—to 10 μg/ml.
60 μg of protein from each sample were separated on 4-12% Tris-Glycin NOVEX gels at 125 V constant for 1.5 h. Each gel contained vehicle control, vehicle supplemented with progesterone control, and randomly chosen samples from treatment groups. Transfer to poly (vinylidine difluoride) (PVFD) membrane was carried out according to the NOVEX electrotransfer protocol, at 25 V, for 40 min. Membranes were rinsed with tris buffered saline (TBS) for 3 min, and blocked with TBS/0.1% TWEEN-20/2% BSA for 1 h. Membranes were then incubated with 1:1000 dilution of anti-MBP mouse monoclonal IgG (Boehringer, Mannheim) in TBS/0.1% TWEEN-20, 0.5% BSA overnight, at 4° C. After washing 4 times for 30 min with TBS/0.1% TWEEN-20, membranes were incubated with anti-mouse horseradish peroxidase conjugate (1:20,000 dilution in TBS/0.1% TWEEN-20, incubated with SUPERSIGNAL chemiluminescent HRP substrate (Pierce Chemical Co., Rockford, Ill.) and exposed to Kodak X-Ray film for 15-20 min.
Density of myelin basic protein (MBP) bands was measured on LYNX Densitometer (Applied imaging) with ILLUMA System and expressed as percent progesterone-induced control MBP.
In experiment 1, the effect of the 4 different solutions of Zcyto7 on MBP accumulation was evaluated in pure Schwann cell cultures, with and without progesterone pretreatment. Solution A275F was evaluated in experiment 1 at 1 ng/ml, 10 ng/ml, 100 ng/ml and 1 μg/ml.
Four controls were included in each experiment: test vehicle alone, vehicle supplemented with progesterone, vehicle supplemented with IL-17, and vehicle supplemented with progesterone and IL-17 [See J. Immunol, 150:5445-5456 (1993)]. Three replicates were set up per each condition.

[2] = tested on: DRG-Schwann cell co-cultures; experiment: Production of myelin (MBP immunofluorescence signal density) in DRG-Schwann cell co-cultures; assay type: cell-based, rat; conditions: DRG-Schwann cell co-culture, 3.5 weeks
Description: Dissociated neuronal cultures from normal rats were established as described by Kleitman et al., Tissue culture methods for the study of myelination, in Culturing Nerve Cells, Banker and Goslin, Eds, pp. 338-378(MIT Press, Cambridge, Mass., 1992). Briefly, DRG were dissected out from the rats, treated with 0.25% trypsin, mechanically dissociated, washed, and resuspended in L15 medium with 10% fetal calf serum. The neurons were plated onto 12-mm glass coverslips coated with ammoniated rat tail collagen (Biomedical Technologies, Inc.) for microscopic evaluation. Starting one day following the dissection, cultures were treated over a 2-week period with three cycles of 5-fluorodeoxyuridine and uridine (both at 10 μM) in standard medium to assure a pure neuronal population. Standard medium consisted of minimum essential medium (MEM) supplemented with 10% FBS, 2 mM glutamine, 0.4% glucose, and 50 ng/m β-nerve growth factor (β-NGB).
Myelinating co-cultures were established by seeding the purified neurons with rat primary Schwann cells as described Einheber, et al., id.
After establishing the myelinating co-cultures, Schwann cells were allowed to proliferate for one week attached to the neurons. The medium was then changed to 15% and 50 μg/ml ascorbate was added to promote basal lamina formation and to initiate myelination. The effect of the Zcyto7 was evaluated for 3.5 weeks in the presence of ascorbate, with the medium changed every two days. Cultures were then fixed in 3.7% formaldehyde for 10 minutes and made permeable in 100% methanol for 15 minutes at −20° C. Following with PBS having 3% BSA, the samples were incubated with mouse anti-MBP antibody (Boehringer-Mannheim) overnight, washed and incubated with Cy3-labeled anti-mouse IgG. Samples were washed, mounted in VECTASHIELD and examined by epifluorescence with a Zeiss AXIOSKOP microscope.
Myelin production was quantitatively and qualitatively evaluated, and myelin density was determined for each of the five replicates per condition. Six representative regions in each sample were captured using a low-level light COHUE digital camera, and the density of fluorescent signal determined using the National Institutes of Health (NIH) Scion Image. The mean and standard deviation of myelin density was calculated for each group and converted to a percentage by dividing by the density seen in the appropriate control culture. Morphometric measurements were carried out using double blind analysis.
Solution A258F was chosen on the basis of the results of experiment 1 was evaluated in experiment 2 for myelin formation in DRG-Schwann co-cultures. […]

[3] = 1 ng/ml, without progesterone, pure Schwann cells, 48 h
[4] = 10 ng/ml, without progesterone, pure Schwann cells, 48 h
[5] = 100 ng/ml, without progesterone, pure Schwann cells, 48 h
[6] = 1 μg/ml, without progesterone, pure Schwann cells, 48 h
[7] = Prog + 1 ng/ml, pure Schwann cells, 48 h
[8] = Prog + 10 ng/ml, pure Schwann cells, 48 h
[9] = Prog + 100 ng/ml, pure Schwann cells, 48 h
[10] = Prog + 1 μg/ml, pure Schwann cells, 48 h

Molecule	MBP Signal Density (mean ± SD) ([2]; Ascorbic acid (AA) + 10 ng/ml)	Mean MBP induction (as percent of progesterone induction) (primary Schwann cells; [3])	Mean MBP induction (as percent of progesterone induction) (primary Schwann cells; [4])	MBP accumulation (in words) (primary Schwann cells; 100 ng/ml)	Mean MBP induction (as percent of progesterone induction) (primary Schwann cells; [5])	Mean MBP induction (as percent of progesterone induction) (primary Schwann cells; [6])	Mean MBP induction (as percent of progesterone induction) (primary Schwann cells; [7])	Mean MBP induction (as percent of progesterone induction) (primary Schwann cells; [8])	Mean MBP induction (as percent of progesterone induction) (primary Schwann cells; [9])	Mean MBP induction (as percent of progesterone induction) (primary Schwann cells; [10])	further results
C=C[C@@]1(C)CC(=O)[C@]2(O)[C@@]3(C)[C@@H](O)CCC(C)(C)[C@@H]3[C@H](O)[C@H](OC(C)=O)[C@@]2(C)O1 [Forskolin]	–	–	–	–	–	–	–	–	–	–	Relative percentage of P zero protein (media control = 100%) ([1]; 10 μM): 199%; Relative percentage of P zero protein (media control = 100%) ([1]; 25 μM): 30%
IL-17: Interleukin-17; solution at 50 μg/ml of PBS, pH 7.0; control in the experiments	11.65 ± 0.78	–	–	–	–	–	–	–	–	–	Mean MBP induction (as percent of progesterone induction) (primary Schwann cells; Prog + IL-17 control, in column A258 F): 199.30 ± 23.21% of progesterone induction; Mean MBP induction (as percent of progesterone induction) (primary Schwann cells; Prog + IL-17 control, in column A275 F): 214.50 ± 103.80% of progesterone induction; Mean MBP induction (as percent of progesterone induction) (primary Schwann cells; Prog + IL-17 control, in column A311 F): 180.60 ± 123.80% of progesterone induction
A258 F: Solution of human Zcyto7 expressed in BHK cells, 0.603 mg/ml of PBS at pH 6.0 (protein, UniProt Q9UHF5 21-180, looked up) Interleukin-17B: QPRSPKSKRKGQGRPGPLAPGPHQVPLDLVSRMKPYARMEEYERNIEEMVAQLRNSSELAQRKCEVNLQLWMSNKRSLSPWGYSINHDPSRIPVDLPEARCLCLGCVNPFTMQEDRSMVSVPVFSQVPVRRRLCPPPPRTGPCRQRAVMETIAVGCTCIF	47.74 ± 23.60	81.47 ± 7.75% of progesterone induction	41.59 ± 32.29% of progesterone induction	significantly induced MBP accumulation	117.00 ± 42.89% of progesterone induction	152.80 ± 27.95% of progesterone induction	117.00 ± 15.83% of progesterone induction	187.20 ± 18.43% of progesterone induction	265.90 ± 32.09% of progesterone induction	174.30 ± 25.59% of progesterone induction	Concentration of maximal effect on MBP accumulation (primary Schwann cells; pure Schwann cell cultures): 100 ng/mL; MBP induction (in words) (primary Schwann cells; pure Schwann cell cultures): induced MBP accumulation in dose-dependent manner; MBP Signal Density (mean ± SD) ([2]; Ascorbic acid (AA) + 1 ng/ml): 20.04 ± 8.55; MBP Signal Density (mean ± SD) ([2]; Ascorbic acid (AA) + 100 ng/ml): 74.74 ± 19.22
A258 G: Solution of human Zcyto7 expressed in BHK cells, 0.089 mg/ml of PBS+0.1% BSA at pH 6.0 (protein, UniProt Q9UHF5 21-180, looked up) Interleukin-17B: QPRSPKSKRKGQGRPGPLAPGPHQVPLDLVSRMKPYARMEEYERNIEEMVAQLRNSSELAQRKCEVNLQLWMSNKRSLSPWGYSINHDPSRIPVDLPEARCLCLGCVNPFTMQEDRSMVSVPVFSQVPVRRRLCPPPPRTGPCRQRAVMETIAVGCTCIF	–	–	–	significantly induced MBP accumulation	210 ± 115.20% of progesterone induction	–	–	–	152 ± 19.38% of progesterone induction	–	–
A275 F: Solution of murine Zcyto7 expressed in BHK cells, 1 mg/ml of PBS at pH 6.0 (protein, UniProt Q9QXT6 23-180, looked up) Interleukin-17B: RNTKGKRKGQGRPSPLAPGPHQVPLDLVSRVKPYARMEEYERNLGEMVAQLRNSSEPAKKKCEVNLQLWLSNKRSLSPWGYSINHDPSRIPADLPEARCLCLGCVNPFTMQEDRSMVSVPVFSQVPVRRRLCPQPPRPGPCRQRVVMETIAVGCTCIF	–	102.40 ± 21.33% of progesterone induction	123.40 ± 50.34% of progesterone induction	significantly induced MBP accumulation	210.60 ± 9708% of progesterone induction	170.90 ± 49.63% of progesterone induction	48.77 ± 45.44% of progesterone induction	121.00 ± 78.16% of progesterone induction	278.00 ± 95.43% of progesterone induction	280.80 ± 62.95% of progesterone induction	–
